Test: soluble on expression in E. coli; label from the status in PepcDB or PDB records
For “MSLNKTQAQVSHALKSLARKEEWKHRLQQSEELHDILLKAANRYVAGEKRSDGLAIARKLQAKGYGISLENIGENTKLLAQCREAKMEFDQLIEDVGAIAPGQTVSFDLSHIGLSYQFDTAYGHLIELAEKANEHEVTLMISMEESTKTDQILAVYRQAAELYSNIGITLQAHLFRTPDDLRKLVQLPGKIRIVKGAYQEPSHLAMERSDYLNNRYLELVDHLVSTNHPVSVATHDQKLLEEMERRQFLQSTDVEIEMLYGIQPSQLKLFKEKGYQTRVYLTYGHEWFLYLCHRLAEYPENIYTALIDIINPSLPKVDDMYEGHHHHHH”, the “soluble on expression in E. coli” value was “soluble”. With “MGSDKIHHHHHHMSTLIRSALLVKFSEIARTLSVDPERMIRHVGADRSCIVSPDLHVPEPWLANVLDASEQASSGAAVGLLMAESWRLSDFGPISLLLQHQPTLRHALGQLETYRHLLSESVLVHVEETDAVAIVRLQLITDRPTPGRQPVELSIGAMLCLMKSMLGGKWKPRSVHFTHGAPANLHVHRRLFGTNVEFGSDFDGIVLDRQDLDRPNPLGDVNLARYAREFLDQHPRGRRISTASNVRRSVHMLLPRGQGSIEQVGQQLGMSARTLQRRLGQEGQEFSSLVNEVRRGLASRYLADLRYPVSQVAMLVGFAEVSTFSRWFSSQFGMPPTRWRTGAEH” the “soluble on expression in E. coli” value was “not soluble”. For “MDKKTACAHVAEPCEFSYSTRDAIIYALGVGARAKEDLCYVYENHEDFKVLPSYIVAPGFQAHTLMDWPGVEFDLQRVLHGEQYIEVYQPLSAEGKLKSEARVVDILDKGSGALILGNVTTYDENGKKIAMQQFSTFQTGSGNFGGDRTSPHEIKAATVPDRAPDAVIEQKTTVDQAALYRLGSGDMNPLHVDPEFAKMSGFKTPILHGLCSLGFATRHVIAAWAGNDSDKFKAIKVRFSSPVLPGQTLVTETWKNGKRIIFQMKVKETGKIVISNAFIDLHEASELPTVPIDLASKL”, the “soluble on expression in E. coli” value was “not soluble”. With “GVVNVVVPQYVNCPDVCHWESAIMIYLMGELVERGLQDKVVFVTIGVNPYYETIEDGKRYMESVAGDYLDKGVKWIWVLDDVEKQEELWNMFGIAVSLYCVKNDGSIIDELTYDDYLKLEESGECSFVGVNHTAGFIIVDGDGVFRYFMSPTEDGWKRGQRQVAETILQYILKLVEERK” the “soluble on expression in E. coli” value was “not soluble”. With “MQGLYIYGEVGRGKTMLMDLFFSCLPQKRKKRAHFNDFMADVHERINIYRQASKDGKTGQKTPILAVVEDLAQEAQVLCFDEFSVTDIADAMVLGRLISALFDKGIFFVATSNVAPDNLYYNGLEHHHHHH” the “soluble on expression in E. coli” value was “not soluble”. In the case of “MGSDKIHHHHHHMTSVTPCASSSSEMNDFLQAHPDTQYVDLLISDMNGVVRGKRIERASLHKVYEKGINLPASLFALDINGSTVESTGLGLDIGDADRICFPIPGTLSDEPWQKRPTAQLLMTMHELDGQPFFADPREVLRQVVSKFDDLGLTICAAFELEFYLIDQDNLNGRPQPPRSPISGKRPQSTQVYLIDDLDEYADCLQDMLEAAKEQGLPADAIVKESAPAQFEVNLHHVADPLKACDYAILLKRLIKNVAYDHEMDTTFMAKPYPGQAGNGLHVHISLLDKKTGKNIFASDDPLQSDTLRHAIGGVLETMPASMAFLCPNINSYRRFGAQFYVPNAPSWGLDNRTVAVRVPTDSSENVRLEHRVAGADANPYLMLAAILAGVHHGLTNKVEPEAPIEGNSYEQLEQSLPNNLRDALRALDDSEVLNQYISPDYIDIFVACKESELAEFEVSISDLEYNWYLHTV”, the “soluble on expression in E. coli” value was “not soluble”. With “SAELQEVQITEEKPLLPGQTPEAAKEAELAARILLDQGQTHSVETPYVSVTFTVYGTPKPKRPAILTYHDVGLNYKSCFQPLFQFEDMQEIIQNFVRVHVDAPGMEEGAPVFPLGYQYPSLDQLADMIPCVLQYLNFSTIIGVGVGAGAYILARYALNHPDTVEGLVLINIDPNAKGWMDWAAHKLTGLTSSIPEMILGHLFSQEELSGNSELIQKYRNIITHAPNLDNIELYWNSYNNRRDLNFERGGDITLRCPVMLVVECNSKLDPTQTSFLKMADSGGQPQLTQPGKLTEAFKYFLQGMGYMASSCMTRLSRSRTASLTSAASVDGNRSRSRTLSQSSESGTLSSGPPGHTMEVSC” the “soluble on expression in E. coli” value was “not soluble”. For “MAHHHHHHMLPRGEQHVSVAGSDDYMDDAASALLSELQQVVVRVSHQMVEERRRAAQQRKQIRALEAIVAEQDAMLDALRTQCDAAQCEKSRLLKSYQQELRWRGADPVQAARRSRDICGTSGTHVSAAQVDNVVQAEFRRLSTIYESCPFSGFDDVSPVVAAVLRSLATQVLQLRGAARNDEAEASDISKDAQPAPVQPHATSSSLRASARGTSTSSLMPAFNRSAPTDGHGKAGVVDRVTPLAALEKRKKASMFAAATAGPNHSPSETAGRTNGEEAELHRVDLDAGRNGDADAAACMASEASASVASSVCEDAASILSDIRARYGL”, the “soluble on expression in E. coli” value was “not soluble”. For “MFVQTTNQSNTLSNFILTCAFPAGAPVTNYPPSLSHTSSPGSSVYEASTKTEAVHKLESYQLQASRDPCTIPDELREEMKRMKRQEGAFKTALCLSHKRGKTCIYGEQCKFAHGVHELRCQQAKKNHRNYKTVLCDKFTTTGYCKYGIRCQFIHRSMDATNVTRPIDTADFKLDVQSDLSRAFALDSSSFLPNWHCSALLN”, the “soluble on expression in E. coli” value was “not soluble”. With “MRKVRVGIWGFGAMGIGMANMILKKEGIEIVSVCSRSTSGKSMYDVLGIERGERPEVIINKNYEEVFREKSVDVVLLATDSFTKKAFDKIIFLLNRKINVISTAEQMAYPQADDADLAKKMDEVAKENGVSILGTGINPGFVLDLLVLALSGTCEEVTSIKAKRVNDLSPFGKSVMVEQGVGVTREEFIKGVEDKTIAGHVGFVESINMIADGLGWKLDKIEQTKEPIMTTVDRKSKYGEALAGNVAGCRQCGYGYVNGEVLIEMEHPQQIIPEAEGIKTGDYVSIKGIPNIDLQINPEIPGGVGTYAMIVNSIPLIINARPGLKTMLDIPVPRAIMGDIRNQIEVELEEESKAN” the “soluble on expression in E. coli” value was “not soluble”. In the case of “MVVRSLLRVSRLTSASCRHASLAVSSTPKPYIPSVTGVQKSMPFDNLLEQYSRVHWDDSVTYDDPNVQKLFKSLMSGSRAALASAITLVESRHPTKRAQGNMLLKMVLDEEREKYKKFGRDSMIFRVGISGSPGVGKSSFIEALGAELTENRGKKVAVLTIDPTSAMTGGSVLGDLTRMQELSRNPKAYIRQSPTSGSLGGVTRGIHEAVILCEGAGYDIVIIETVGVGQSETSVSDMCDMMCLLLSPAHGDELQGVKRGIMEMSDLLVVTKDDGDLKAKAKMTQAEYISALKFMRPRLDVWRPKVMRSSIMDKESVSEVCSSLYEFWDTIGESGDLERRRQDQMKKWMWNHVKDEIMSVFQKHPKIAHLAPKLENEIRSGKITPGLAAETMIRTFFGV”, the “soluble on expression in E. coli” value was “not soluble”. In the case of “MAQRLDGARFRYLNEQLYSGPSSAAQRLFQEDPEAFLLYHRGFQSQVKKWPLQPVDRIARDLRQRPASLVVADFGCGDCRLASSIRNPVHCFDLASLDPRVTVCDMAQVPLEDESVDVAVFCLSLMGTNIRDFLEEANRVLKPGGLLKVAEVSSRFEDVRTFLRAVTKLGFKIVSKDLTNSHFFLFDFQKTGPPLVGPKAQLSGLQLQPCLYKRR”, the “soluble on expression in E. coli” value was “soluble”. With “MGHHHHHHSHMAATSGTDEPVSGELVSVAHALSLPAESYGNDPDIEMAWAMRAMQHAEVYYKLISSVDPQFLKLTKVDDQIYSEFRKNFETLRIDVLDPEELKSESAKEKWRPFCLKFNGIVEDFNYGTLLRLDCSQGYTEENTIFAPRIQFFAIEIARNREGYNKAVYISVQDKEGEKGVNNGGEKRADSGEEENTKNGGEKGADSGEEKEEGINREDKTDKGGEKGKEADKEINKSGEKAM” the “soluble on expression in E. coli” value was “not soluble”. In the case of “GMSHSLKDFLEACETLGTLRLIVTSSAAVLEARGKIEKLFYAELAKGKYANMHTEGFEFHLNMEKITQVKFETGEAKRGNFTTYAIRFLDEKQESALSLFLQWGKPGEYEPGQVEAWHTLKEKYGEVWEPLPVQL”, the “soluble on expression in E. coli” value was “soluble”. In the case of “MGFHLRGLGGSLKPLPFSTMYLEATGKSIEADLRTVFARDPKLSVMSEPKGAQAVVSVVSENQSKDILTINTGGRINEYQLTYTVVVRTVIGGVPVDPDMVVTVRRSLNYSDNQVLGKQQEEDLLWADARRDAAEQIVRRLAYLKVPAAPLAGPVSVKPDAVPQPLEHHHHHH”, the “soluble on expression in E. coli” value was “soluble”. In the case of “MFRQLKKNLVATLIAAMTIGQVAPAFADSADTLPDMGTSAGSTLSIGQEMQMGDYYVRQLRGSAPLINDPLLTQYINSLGMRLVSHANSVKTPFHFFLINNDEINAFAFFGGNVVLHSALFRYSDNESQLASVMAHEISHVTQRHLARAMEDQQRSAPLTWVGALGSILLAMASPQAGMAALTGTLAGTRQGMISFTQQNEQEADRIGIQVLQRSGFDPQAMPTFLEKLLDQARYSSRPPEILLTHPLPESRLADARNRANQMRPMVVQSSEDFYLAKARTLGMYNSGRNQLTSDLLDEWAKGNVRQQRAAQYGRALQAMEANKYDEARKTLQPLLAAEPGNAWYLDLATDIDLGQNKANEAINRLKNARDLRTNPVLQLNLANAYLQGGQPQEAANILNRYTFNNKDDSNGWDLLAQAEAALNNRDQELAARAEGYALAGRLDQAISLLSSASSQVKLGSLQQARYDARIDQLRQLQERFKPYTKMLEHHHHHH”, the “soluble on expression in E. coli” value was “soluble”. With “MTYEAGCGLIKALEDPDNRVRQRAVKTLGKRGNPDVLEDLMEALKDSRQPVQEAASEALRKIIAASDSVPVLVKALDATDRNVRKAAIEALWKAGTPEAIPPLLRELDDADWYLRSRAADALADIASPEAALGLIKVMDIHDSPVKKIIVNALGKIGTVEAVEGLVKALEDLEHHHHHH” the “soluble on expression in E. coli” value was “not soluble”. For “MVTLEDMSQYLDEFLADARDRIDSLSNAILTLEKIVKEGGSEEEKTELINQIFRDAHTLKGTAATMGFMKLSETAHKMENIFDAIRNSQLELTPELVDLVLDFLDAIDAMVNNIEESGNEGDVDVSDLFERADEFLGGSKKEIKPEEKPKEAEKKEEKVAEEVPSAEGKVYYIKVKFQKDAPLKGVRAFLILSDLEERGEVIWTNPGREIIENGNLEGDVVEFRIVSETPKEELETVIKRHPEVESVEIVEEKKKEEAGEKAVEGKEYVVRVYFQPDTPLKGPRSYLILNDLEKIGEILSTNPSRQDIEEGNLIENKFFEVVLRTSESKEKISEILKKHPDVLNFTITEKEEEKKEEKKEAKKQPPKQPKKPPIIETPKVKISRVIKIDVGHLDKLMNLVGELVITKGRLEQIGERLGDRELFEALSTLSRLLTELQDEIMEMRLTPIAEVFNKFPRMVRDLARKMGKEVEFVMEGADIEVDRTILEKLGDALVHLLRNAVDHGIEPPEERVKLGKPRAGRVELIAKREKNHVVIIVRDDGRGIDPEKVKRKAVERGLITPEEAANLSDEEAINLIFLPGFSTADKVTDVSGRGVGMDVVKEVVKSMNGSISVQTEVGKGTTFILKLPISMAIIQALLIRVEDETYAIPINNILETIEVDPSILKTVGGKPVIVLRGEIIPVIMLHELFGLPAPQVDRFPAIIVDHGAQKVAIGVDELLHKRDIVIKSLGKFLSNVRGFAGATILGDGSVVLIIDIGGLLGGGYSG”, the “soluble on expression in E. coli” value was “soluble”. For “MSQQGLERRLLAGLQGLGLTINQAQRAVKHFGADALDRLEKDLFTLTEVEGIGFLTADKLWQARGGALDDPRRLTAAAVYALQLAGTQAGHSFLPRSRAEKGVVHYTRVTPGQARLAVETAVELGRLSEDDSPLFAAEAAATGEGRIYLPHVLRAEKKLASLIRTLLATPPADGAGNDDWAVPKKARKGLSEEQASVLDQLAGHRLVVLTGGPGTGKSTTTKAVADLAESLGLEVGLCAPTGKAARRLGEVTGRTASTVHRLLGYGPQGFRHNHLEPAPYDLLIVDEVSMMGDALMLSLLAAVPPGARVLLVGDTDQLPPVDAGLPLLALAQAAPTIKLTQVYRQAAKNPIIQAAHGLLHGEAPAWGDKRLNLTEIEPDGGARRVALMVRELGGPGAVQVLTPMRKGPLGMDHLNYHLQALFNPGEGGVRIAEGEARPGDTVVQTKNDYNNEIFNGTLGMVLKAEGARLTVDFDGNVVELTGAELFNLQLGYALTVHRAQGSEWGTVLGVLHEAHMPMLSRNLVYTALTRARDRFFSAGSASAWQIAAARQREARNTALLERIRAHLEHHHHHH”, the “soluble on expression in E. coli” value was “soluble”.

Reference: the DeepSol protein solubility set
